Source: patent publication US20240358847A1, “TROP2 BINDERS AND CONJUGATES THEREOF” (MERCK SHARP & DOHME LLC, priority 2023, published 2024)

Experiments:
[1] = Hydrophobic interaction chromatography (HIC); type: physicochemical; conditions: butyl HIC column, FIG. 4
Experimental: The samples are eluted using an inverted gradient from mobile phase A to 50 mM sodium phosphate, pH 7.0/isopropanol (80:20 v/v) (mobile phase B). The elution is followed by recording the A280 nm as a function of time, the data is then exported and analyzed using the Empower software.
(§1) Developability characteristics for various mutants were performed as in Bailly Et al., Predicting Antibody Developability Profiles Through Early Stage Discovery Screening, MABS 12 (1): e1743053 (2020) (doi: 10.1080/19420862.2020.17430530), which is incorporated herein by reference in its entirety. Various methods used may be found herein under General Methods.

[2] = Drug antibody ratio (DAR) of ADC by MS / HIC; type: physicochemical
Experimental: A 100 mM solution of dehydroascorbic acid (8.0 equiv.) in water was added slowly and the solution was mixed at room temperature for 4-10 hours or until completion (monitored by reverse phase liquid chromatography (RP-LC) and sodium dodecyl sulfate capillary electrophoresis (CE-SDS)). A 20 mg/mL solution of linker-payload (3.0 equiv.) in DMSO was added and the conjugation was incubated at room temperature for 2 hours (monitored by Quadrupole time-of-flight (QTOF) mass spectrometry (MS)) before addition of L-cysteine (5 equiv., 50 mM in water) to quench residual linker-payload. […] The ADC was brought to the final desired concentration using Sartorius Vivacell 70 Centrifugal Concentrators and Amicon® Ultra Centrifugal Filters.
The control antibody profile is the unconjugated antibody.

[3] = Non-reducing CE-SDS; type: physicochemical
Experimental: as §1

[4] = UP-SEC aggregation; type: physicochemical
Experimental: as §1

[5] = system: BxPC3 pancreatic cancer cells; test: In vivo anti-tumor efficacy in BxPC3 mouse model; design: species or system BALB/c nude mice; conditions: dose response, IV single dose, FIG. 14
Experimental: Experimental protocol: 7-8 week old female BALB/c nude mice were purchased from Gempharmatech Co., Ltd. ([…]). […] Mouse body weights and tumors were measured twice weekly, and tumor volumes calculated using the formula V=0.5 [a*b2]; where a and b are the long and short diameters of the tumor, respectively. 110 mice were assigned to 11 groups of 10 mice each using a computer-generated randomization procedure to minimize tumor volume variance across groups. Treatments were started when tumors reached an average size of 200 mm^3. PBS and the MMAE conjugates were dosed intravenously (IV) at 2 mg/kg according to Table 25.
Mouse body weights and tumors were measured twice weekly, and tumor volumes calculated using the formula V=0.5 [a*b2]; where a and b are the long and short diameters of the tumor, respectively. 70 mice were assigned to 7 groups of 10 mice each using a computer-generated randomization procedure to minimize tumor volume variance across groups. Treatments were started when tumors reached an average size of 200 mm^3. PBS, a control mAb, and bioconjugate were dosed intravenously (IV) according to Table 26.

[6] = Rat PK of αTROP2 MMAE ADC (tAb, cAb, released MMAE); type: in vivo, Wistar Hannover Rats; conditions: 5 mg/kg IV, up to 14 days, LLOQ […]
Experimental: Plasma concentrations of payload conjugated anti-TROP2 antibody (cAb), total antibody (tAb), and released payload were measured up to 14 days post dose.

B1: αTROP2 (HC:BSM-YTE-S375C) (LC:BSM-Y53D): HC SEQ ID NO: 20 or 90; LC SEQ ID NO: 22 (antibody)
heavy: QVQLLQSGSELKKPGASVKVSCKASGYTFTNYGMNWVRQAPGQGLKWMGWINTYTGEPTYTDDFKGRFSFSLDTSVSQAYLQISSLKAEDTAVYYCARGGFGSSYWYFDVWGQGTLVTVSSASTKGPSVFPLAPSSKSTSGGTAALGCLVKDYFPEPVTVSWNSGALTSGVHTFPAVLQSSGLYSLSSVVTVPSSSLGTQTYICNVNHKPSNTKVDKKVEPKSCDKTHTCPPCPAPELLGGPSVFLFPPKPKDTLYITREPEVTCVVVDVSHEDPEVKFNWYVDGVEVHNAKTKPREEQYNSTYRVVSVLTVLHQDWLNGKEYKCKVSNKALPAPIEKTISKAKGQPREPQVYTLPPSRDELTKNQVSLTCLVKGFYPCDIAVEWESNGQPENNYKTTPPVLDSDGSFFLYSKLTVDKSRWQQGNVFSCSVMHEALHNHYTQKSLSLSPGK
light: DIQLTQSPSSLSASVGDRVTITCKASQDVSIAVAWYQQKPGKAPKLLIYSASDRYTGVPSRFSGSGSGTDFTLTISSLQPEDFATYYCQQHYITPLTFGPGTKVEIKRTVAAPSVFIFPPSDEQLKSGTASVVCLLNNFYPREAKVQWKVDNALQSGNSQESVTEQDSKDSTYSLSSTLTLSKADYEKHKVYACEVTHQGLSSPVTKSFNRGEC
modifications: YTE Fc mutations
For B1, which HIC peak elution [1] is on record?
Its HIC peak elution is 24.14 fraction.

B2: ADC 1: αTROP2 (HC:BSM-YTE-S375C) (LC:BSM-Y53D) conjugated to MP-AA-PABC-MMAE (conjugate)
heavy: QVQLLQSGSELKKPGASVKVSCKASGYTFTNYGMNWVRQAPGQGLKWMGWINTYTGEPTYTDDFKGRFSFSLDTSVSQAYLQISSLKAEDTAVYYCARGGFGSSYWYFDVWGQGTLVTVSSASTKGPSVFPLAPSSKSTSGGTAALGCLVKDYFPEPVTVSWNSGALTSGVHTFPAVLQSSGLYSLSSVVTVPSSSLGTQTYICNVNHKPSNTKVDKKVEPKSCDKTHTCPPCPAPELLGGPSVFLFPPKPKDTLYITREPEVTCVVVDVSHEDPEVKFNWYVDGVEVHNAKTKPREEQYNSTYRVVSVLTVLHQDWLNGKEYKCKVSNKALPAPIEKTISKAKGQPREPQVYTLPPSRDELTKNQVSLTCLVKGFYPCDIAVEWESNGQPENNYKTTPPVLDSDGSFFLYSKLTVDKSRWQQGNVFSCSVMHEALHNHYTQKSLSLSPGK
light: DIQLTQSPSSLSASVGDRVTITCKASQDVSIAVAWYQQKPGKAPKLLIYSASDRYTGVPSRFSGSGSGTDFTLTISSLQPEDFATYYCQQHYITPLTFGPGTKVEIKRTVAAPSVFIFPPSDEQLKSGTASVVCLLNNFYPREAKVQWKVDNALQSGNSQESVTEQDSKDSTYSLSSTLTLSKADYEKHKVYACEVTHQGLSSPVTKSFNRGEC
For B2, which unconjugated antibody ([2]; by MS) is on record?
Its unconjugated antibody is “unconjugated antibody (1.2%)”.

What about the “Purity by CE-SDS NR” value [3] of the same molecule?
Its value is 94.7%.

What about the “Purity by UP-SEC” value [4] of the same molecule?
The value was 96.4%.

And the tumor volume [5]?
Its tumor volume is “effective at reducing tumor volume”.

What about the “unconjugated MMAE in the plasma” value [6] of the same molecule?
Its value is “no detectable”.

B3: αTROP2 (HC: BSM-YTE-S375C-MMAE)(LC: BSM-Y53D) (conjugate)
heavy: QVQLLQSGSELKKPGASVKVSCKASGYTFTNYGMNWVRQAPGQGLKWMGWINTYTGEPTYTDDFKGRFSFSLDTSVSQAYLQISSLKAEDTAVYYCARGGFGSSYWYFDVWGQGTLVTVSSASTKGPSVFPLAPSSKSTSGGTAALGCLVKDYFPEPVTVSWNSGALTSGVHTFPAVLQSSGLYSLSSVVTVPSSSLGTQTYICNVNHKPSNTKVDKKVEPKSCDKTHTCPPCPAPELLGGPSVFLFPPKPKDTLYITREPEVTCVVVDVSHEDPEVKFNWYVDGVEVHNAKTKPREEQYNSTYRVVSVLTVLHQDWLNGKEYKCKVSNKALPAPIEKTISKAKGQPREPQVYTLPPSRDELTKNQVSLTCLVKGFYPCDIAVEWESNGQPENNYKTTPPVLDSDGSFFLYSKLTVDKSRWQQGNVFSCSVMHEALHNHYTQKSLSLSPGK
light: DIQLTQSPSSLSASVGDRVTITCKASQDVSIAVAWYQQKPGKAPKLLIYSASDRYTGVPSRFSGSGSGTDFTLTISSLQPEDFATYYCQQHYITPLTFGPGTKVEIKRTVAAPSVFIFPPSDEQLKSGTASVVCLLNNFYPREAKVQWKVDNALQSGNSQESVTEQDSKDSTYSLSSTLTLSKADYEKHKVYACEVTHQGLSSPVTKSFNRGEC
What does the source list for B3?
DAR ([2]; Table 22): 1.7; DAR ([2]; Table 23): 1.7; % HMW (SEC) ([4]; Table 22): 4.33%; % HMW (SEC) ([4]; Table 23): 4.33%
